Values quoted from earlier work, collected in US20200069786A1, “COMPOSITION AND PROCESS FOR PREPARING VACCINE” (TREOS BIO ZRT., priority 2018, published 2020).
Like-named read-outs stand apart in the source and are kept apart here.

B1: CTCFL (protein, UniProt Q8NI51 1-663, looked up)
Transcriptional repressor …: MAATEISVLSEQFTKIKELELMPEKGLKEEEKDGVCREKDHRSPSELEAERTSGAFQDSVLEEEVELVLAPSEESEKYILTLQTVHFTSEAVELQDMSLLSIQQQEGVQVVVQQPGPGLLWLEEGPRQSLQQCVAISIQQELYSPQEMEVLQFHALEENVMVASEDSKLAVSLAETTGLIKLEEEQEKNQLLAERTKEQLFFVETMSGDERSDEIVLTVSNSNVEEQEDQPTAGQADAEKAKSTKNQRKTKGAKGTFHCDVCMFTSSRMSSFNRHMKTHTSEKPHLCHLCLKTFRTVTLLRNHVNTHTGTRPYKCNDCNMAFVTSGELVRHRRYKHTHEKPFKCSMCKYASVEASKLKRHVRSHTGERPFQCCQCSYASRDTYKLKRHMRTHSGEKPYECHICHTRFTQSGTMKIHILQKHGENVPKYQCPHCATIIARKSDLRVHMRNLHAYSAAELKCRYCSAVFHERYALIQHQKTHKNEKRFKCKHCSYACKQERHMTAHIRTHTGEKPFTCLSCNKCFRQKQLLNAHFRKYHDANFIPTVYKCSKCGKGFSRWINLHRHSEKCGSGEAKSAASGKGRRTRKRKQTILKEATKGQKEAAKGWKEAANGDEAAAEEASTTKGEQFPGEMFPVACRETTARVKEEVDEGVTCEMLLNTMDK
B2: PIWIL1 (protein, UniProt Q96J94 1-861, looked up)
Piwi-like protein 1: MTGRARARARGRARGQETAQLVGSTASQQPGYIQPRPQPPPAEGELFGRGRQRGTAGGTAKSQGLQISAGFQELSLAERGGRRRDFHDLGVNTRQNLDHVKESKTGSSGIIVRLSTNHFRLTSRPQWALYQYHIDYNPLMEARRLRSALLFQHEDLIGKCHAFDGTILFLPKRLQQKVTEVFSKTRNGEDVRITITLTNELPPTSPTCLQFYNIIFRRLLKIMNLQQIGRNYYNPNDPIDIPSHRLVIWPGFTTSILQYENSIMLCTDVSHKVLRSETVLDFMFNFYHQTEEHKFQEQVSKELIGLVVLTKYNNKTYRVDDIDWDQNPKSTFKKADGSEVSFLEYYRKQYNQEITDLKQPVLVSQPKRRRGPGGTLPGPAMLIPELCYLTGLTDKMRNDFNVMKDLAVHTRLTPEQRQREVGRLIDYIHKNDNVQRELRDWGLSFDSNLLSFSGRILQTEKIHQGGKTFDYNPQFADWSKETRGAPLISVKPLDNWLLIYTRRNYEAANSLIQNLFKVTPAMGMQMRKAIMIEVDDRTEAYLRVLQQKVTADTQIVVCLLSSNRKDKYDAIKKYLCTDCPTPSQCVVARTLGKQQTVMAIATKIALQMNCKMGGELWRVDIPLKLVMIVGIDCYHDMTAGRRSIAGFVASINEGMTRWFSRCIFQDRGQELVDGLKVCLQAALRAWNSCNEYMPSRIIVYRDGVGDGQLKTLVNYEVPQFLDCLKSIGRGYNPRLTVIVVKKRVNTRFFAQSGGRLQNPLPGTVIDVEVTRPEWYDFFIVSQAVRSGSVSPTHYNVIYDNSGLKPDHIQRLTYKLCHIYYNWPGVIRVPAPCQYAHKLAFLVGQSIHREPNLSLSNRLYYL
B3: KIF20A (protein, UniProt O95235 2-890, looked up)
Kinesin-like protein KIF20A: SQGILSPPAGLLSDDDVVVSPMFESTAADLGSVVRKNLLSDCSVVSTSLEDKQQVPSEDSMEKVKVYLRVRPLLPSELERQEDQGCVRIENVETLVLQAPKDSFALKSNERGIGQATHRFTFSQIFGPEVGQASFFNLTVKEMVKDVLKGQNWLIYTYGVTNSGKTHTIQGTIKDGGILPRSLALIFNSLQGQLHPTPDLKPLLSNEVIWLDSKQIRQEEMKKLSLLNGGLQEEELSTSLKRSVYIESRIGTSTSFDSGIAGLSSISQCTSSSQLDETSHRWAQPDTAPLPVPANIRFSIWISFFEIYNELLYDLLEPPSQQRKRQTLRLCEDQNGNPYVKDLNWIHVQDAEEAWKLLKVGRKNQSFASTHLNQNSSRSHSIFSIRILHLQGEGDIVPKISELSLCDLAGSERCKDQKSGERLKEAGNINTSLHTLGRCIAALRQNQQNRSKQNLVPFRDSKLTRVFQGFFTGRGRSCMIVNVNPCASTYDETLHVAKFSAIASQLVHAPPMQLGFPSLHSFIKEHSLQVSPSLEKGAKADTGLDDDIENEADISMYGKEELLQVVEAMKTLLLKERQEKLQLEMHLRDEICNEMVEQMQQREQWCSEHLDTQKELLEEMYEEKLNILKESLTSFYQEEIQERDEKIEELEALLQEARQQSVAHQQSGSELALRRSQRLAASASTQQLQEVKAKLQQCKAELNSTTEELHKYQKMLEPPPSAKPFTIDVDKKLEEGQKNIRLLRTELQKLGESLQSAERACCHSTGAGKLRQALTTCDDILIKQDQTLAELQNNMVLVKLDLRKKAACIAEQYHTVLKLQGQVSAKKRLGTNQENQQPNQQPPGKKPFLRNLLPRTPTCQSSTDCSPYARILRSRRSPLLKSGPFGKKY
B4: GAGE-2 (protein, UniProt Q6NT46 1-116, looked up)
G antigen 2A: MSWRGRSTYRPRPRRYVEPPEMIGPMRPEQFSDEVEPATPEEGEPATQRQDPAAAQEGQDEGASAGQGPKPEAHSQEQGHPQTGCECEDGPDGQEMDPPNPEEVKTPEEGEKQSQC
B5: PBK (protein, UniProt Q96KB5 1-322, looked up)
Lymphokine-activated killer …: MEGISNFKTPSKLSEKKKSVLCSTPTINIPASPFMQKLGFGTGVNVYLMKRSPRGLSHSPWAVKKINPICNDHYRSVYQKRLMDEAKILKSLHHPNIVGYRAFTEANDGSLCLAMEYGGEKSLNDLIEERYKASQDPFPAAIILKVALNMARGLKYLHQEKKLLHGDIKSSNVVIKGDFETIKICDVGVSLPLDENMTVTDPEACYIGTEPWKPKEAVEENGVITDKADIFAFGLTLWEMMTLSIPHINLSNDDDDEDKTFDESDFDDEAYYAALGTRPPINMEELDESYQKVIELFSVCTNEDPKDRPSAAHIVEALETDV
B6: CCDC110 (protein, UniProt Q8TBZ0 1-833, looked up)
Coiled-coil domain-containing …: MSPEKQHREEDEVDSVLLSASKILNSSEGVKESGCSDTEYGCIAESENQIQPQSALKVLQQQLESFQALRMQTLQNVSMVQSEISEILNKSIIEVENPQFSSEKNLVFGTRIEKDLPTENQEENLSMEKSHHFEDSKTLHSVEEKLSGDSVNSLPQSVNVPSQIHSEDTLTLRTSTDNLSSNIIIHPSENSDILKNYNNFYRFLPTAPPNVMSQADTVILDKSKITVPFLKHGFCENLDDICHSIKQMKEELQKSHDGEVALTNELQTLQTDPDVHRNGKYDMSPIHQDKMNFIKEENLDGNLNEDIKSKRISELEALVKKLLPFRETVSKFHVHFCRKCKKLSKSEMHRGKKNEKNNKEIPITGKNITDLKFHSRVPRYTLSFLDQTKHEMKDKERQPFLVKQGSIISENEKTSKVNSVTEQCVAKIQYLQNYLKESVQIQKKVMELESENLNLKSKMKPLIFTTQSLIQKVETYEKQLKNLVEEKSTIQSKLSKTEEYSKECLKEFKKIISKYNVLQGQNKTLEEKNIQLSLEKQQMMEALDQLKSKEHKTQSDMAIVNNENNRMSIEMEAMKTNILLIQDEKEMLEKKTHQLLKEKSSLGNELKESQLEIIQLKEKERLAKTEQETLLQIIETVKDEKLNLETTLQESTAARQIMEREIENIQTYQSTAEENFLQEIKNAKSEASIYKNSLSEIGKECEMLSKMVMETKTDNQILKEELKKHSQENIKFENSISRLTEDKILLENYVRSIENERDTLEFEMRHLQREYLSLSDKICNQHNDPSKTTYISRREKFHFDNYTHEDTSSPQSRPLASDLKGYFKVKDRTLKHH
B7: ZNF165 (protein, UniProt P49910 1-485, looked up)
Zinc finger protein 165: MATEPKKAAAQNSPEDEGLLIVKIEEEEFIHGQDTCLQRSELLKQELCRQLFRQFCYQDSPGPREALSRLRELCCQWLKPEIHTKEQILELLVLEQFLTILPGDLQAWVHEHYPESGEEAVTILEDLERGTDEAVLQVQAHEHGQEIFQKKVSPPGPALNVKLQPVETKAHFDSSEPQLLWDCDNESENSRSMPKLEIFEKIESQRIISGRISGYISEASGESQDICKSAGRVKRQWEKESGESQRLSSAQDEGFGKILTHKNTVRGEIISHDGCERRLNLNSNEFTHQKSCKHGTCDQSFKWNSDFINHQIIYAGEKNHQYGKSFKSPKLAKHAAVFSGDKTHQCNECGKAFRHSSKLARHQRIHTGERCYECNECGKSFAESSDLTRHRRIHTGERPFGCKECGRAFNLNSHLIRHQRIHTREKPYECSECGKTFRVSSHLIRHFRIHTGEKPYECSECGRAFSQSSNLSQHQRIHMRENLLM
B8: CEA (protein, UniProt P06731 35-685, looked up)
Cell adhesion molecule CEACAM5: KLTIESTPFNVAEGKEVLLLVHNLPQHLFGYSWYKGERVDGNRQIIGYVIGTQQATPGPAYSGREIIYPNASLLIQNIIQNDTGFYTLHVIKSDLVNEEATGQFRVYPELPKPSISSNNSKPVEDKDAVAFTCEPETQDATYLWWVNNQSLPVSPRLQLSNGNRTLTLFNVTRNDTASYKCETQNPVSARRSDSVILNVLYGPDAPTISPLNTSYRSGENLNLSCHAASNPPAQYSWFVNGTFQQSTQELFIPNITVNNSGSYTCQAHNSDTGLNRTTVTTITVYAEPPKPFITSNNSNPVEDEDAVALTCEPEIQNTTYLWWVNNQSLPVSPRLQLSNDNRTLTLLSVTRNDVGPYECGIQNELSVDHSDPVILNVLYGPDDPTISPSYTYYRPGVNLSLSCHAASNPPAQYSWLIDGNIQQHTQELFISNITEKNSGLYTCQANNSASGHSRTTVKTITVSAELPKPSISSNNSKPVEDKDAVAFTCEPEAQNTTYLWWVNGQSLPVSPRLQLSNGNRTLTLFNVTRNDARAYVCGIQNSVSANRSDPVTLDVLYGPDTPIISPPDSSYLSGANLNLSCHSASNPSPQYSWRINGIPQQHTQVLFIAKITPNNNGTYACFVSNLATGRNNSIVKSITVSASGTSPGLSA

Tested on: TSA
[1] = TSA expression rate in Cervical cancer
[2] = TSA expression rate in Esophageal
[3] = TSA expression rate in MELANOMA
[4] = TSA expression rate in PROSTATE cancer
[5] = TSA expression rate in GASTRIC cancer

Row | Molecule | TSA Expression Rate (ER) (BRAIN) [%] | TSA Expression Rate (ER) (BREAST) [%] | TSA Expression Rate (ER) (HCC) [%] | TSA Expression Rate (ER) (LUNG) [%] | TSA Expression Rate (ER) (OVARIAN) [%] | TSA Expression Rate (ER) (PANCREATIC) [%] | Expression Rate (ER) % (TSA expression rate in CRC) [%] | Expression Rate (ER) % [1] [%] | Expression Rate (ER) % [2] [%] | Expression Rate (ER) % [3] [%] | Expression Rate (ER) % [4] [%] | Expression Rate (ER) % [5] [%] | Expression Rate (ER) % (TSA expression rate in Kidney) [%] | Expression Rate (ER) % (TSA expression rate in LUNG cancer) [%] | Expression Rate (ER) % (TSA expression rate in BLADDER cancer) [%] | Expression Rate (ER) % (TSA expression rate in HEAD and NECK) [%] | Expression Rate (ER) % (TSA expression rate in LEUKEMIAS) [%]
1 | B1 | 9 | 74 | 55 | 36 | 82 | 29 | 80 | 32 | 56 | 27 | 98 | – | – | – | – | – | –
2 | B2 | 76 | 100 | 40 | – | 68 | 71 | 48 | 83 | 70 | – | 4 | 76 | 52 | 15 | – | – | –
3 | B3 | 58 | – | – | 95 | 65 | 63 | – | 35 | 15 | 64 | – | – | – | – | – | – | –
4 | B4 | – | – | – | – | – | 17 | – | – | – | – | – | – | – | – | – | – | –
5 | B5 | 100 | – | 64 | – | – | – | – | – | – | – | – | – | – | – | 43 | – | –
6 | B6 | – | – | 50 | 50 | – | 100 | 50 | – | – | 60 | – | 100 | – | – | – | 67 | –
7 | B7 | 100 | – | 52 | 21 | – | – | 43 | – | – | – | – | 9 | – | – | – | – | 52
8 | B8 | – | – | – | – | – | 60 | – | – | – | – | – | – | – | – | – | – | –
